From US20240360208A1

Legend:
[1] = biological target: monomeric Fcγ receptor FcγRIIIa (human) (UniProt P08637); assay: SPR T200, Protein L capture, FcγR at 5 µg/ml, 25 C, pH 7.4
[2] = biological target: monomeric Fcγ receptor FcγRIIa (human) (UniProt P12318); assay: as above
[3] = biological target: monomeric Fcγ receptor FcγRIIb (human) (UniProt P31994); assay: as above
[4] = biological target: biotinylated human single chain FcRn (human) (UniProt P55899); assay: SPR Biacore 8K, sc huFcRn on SA chip, 50 nM antibody, 25 C, pH 5
[5] = biological target: biotinylated human single chain FcRn (human) (UniProt P55899); assay: SPR Biacore 8K, sc huFcRn on SA chip, 50 nM antibody, 25 C, pH 6
[6] = biological target: biotinylated human single chain FcRn (human) (UniProt P55899); assay: SPR Biacore 8K, sc huFcRn on SA chip, 50 nM antibody, 25 C, pH 7.4
[7] = biological target: human CCL2 (MCP1) - wild type (wt) (human) (UniProt P13500); assay: cell-based or functional assay

Chain of monomeric Fcγ receptor FcγRIIb (human) (P31994 43-217 limits assumed): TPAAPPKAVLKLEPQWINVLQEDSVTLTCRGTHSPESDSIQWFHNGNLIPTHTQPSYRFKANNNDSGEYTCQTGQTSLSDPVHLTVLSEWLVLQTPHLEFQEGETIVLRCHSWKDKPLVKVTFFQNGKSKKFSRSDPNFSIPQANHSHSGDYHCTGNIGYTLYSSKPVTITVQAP
Chain of monomeric Fcγ receptor FcγRIIIa (human) (P08637 17-208 limits assumed): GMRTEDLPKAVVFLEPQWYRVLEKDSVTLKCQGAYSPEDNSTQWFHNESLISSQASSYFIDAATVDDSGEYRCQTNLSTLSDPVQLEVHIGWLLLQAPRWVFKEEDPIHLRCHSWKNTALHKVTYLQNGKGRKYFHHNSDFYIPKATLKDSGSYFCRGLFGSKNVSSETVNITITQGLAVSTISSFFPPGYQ
Chain of monomeric Fcγ receptor FcγRIIa (human) (P12318 34-217 limits assumed): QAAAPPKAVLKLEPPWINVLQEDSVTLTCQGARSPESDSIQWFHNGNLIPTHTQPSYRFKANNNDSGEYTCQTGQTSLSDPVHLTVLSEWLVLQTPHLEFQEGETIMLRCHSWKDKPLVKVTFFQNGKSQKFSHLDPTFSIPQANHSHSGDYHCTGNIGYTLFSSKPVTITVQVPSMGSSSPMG

binding amounts of hFcγRs (RU) per 1 RU Ab [1]	binding amounts of hFcγRs (RU) per 1 RU Ab [2]	binding amounts of hFcγRs (RU) per 1 RU Ab [3]	Binding amount of Ab (RU) per 1RU of FcRn-surface [4]	Binding amount of Ab (RU) per 1RU of FcRn-surface [5]	Binding amount of Ab (RU) per 1RU of FcRn-surface [6]	THP1 chemotaxis [fold change compared to IgG control] [7]	Substance
0.001 RU per RU	0.003 RU per RU	0 RU per RU	0.9 RU per RU	0.35 RU per RU	0 RU per RU	–	CNTO888 (antibody)
–	–	–	–	–	–	3.7 fold	human CCL2/JE/MCP-1 Antibody (R&D Systems Cat #MAB279)
